Data: patent US11510990B2, “Conjugates of fusion proteins of GLP-1 and FGF21” (BEIJING QL BIOPHARMACEUTICAL CO., LTD., priority 2020, dated 2022)

Assays:
[1] = Body weight reduction in C57BL/6 mice, daily subcutaneous dosing; format: in vivo; conditions: for Body weight reduction at 30 nmol/kg (% reduction compared to vehicle)(Day11): male C57BL/6 mice, 30 nmol/kg subcutaneously everyday, Day 11
Protocol: FIGS. 1A-1F show in vivo activities of fusion protein conjugates. […] Body weight was measured daily. […] Compared to Vehicle control: ***, p<0.001. All data are expressed as mean values and standard error (SEM).
10 week old male C57BL/6 mice were injected everyday subcutaneously with 30 nmol/kg exemplary fusion protein conjugates for 10 or 14 days (n=5). Body weight was daily monitored for each individual animal. Day 1 and Day 10 (or Day 14) are first day and last day of molecule dosage. % BW loss=100*(BW on Day n-BW on Day 1)/(BW on Day 1). Data are indicated as mean values and standard error (SEM) or pooled values. Statistical analysis was performed by One-way ANOVA. Body weight reduction on Day 11 in Table 5 is calculated by −1*(% BW loss−% BW loss of vehicle group).

[2] = Pharmacokinetic measurement in C57BL/6 mice, single subcutaneous dose, plasma ELISA; format: in vivo; conditions: for AUClast / Cmax / Terminal t1/2 / Tmax: single subcutaneous dose 30 nmol/kg, plasma
Protocol: Each fusion protein conjugate was injected subcutaneously into C57BL/6 mice (n=3/group) once and plasma samples were collected at designed timepoints and analyzed by ELISA method. Plasma concentrations are indicated as mean values and standard error (SEM).
6-8 week old male C57BL/6 mice were administrated in a single subcutaneous dose of 30 nmol/kg of the exemplary fusion protein conjugates (Compounds 4, 9, 10, 19, 63) or the non-acylated fusion protein (i.e., Compound 3, which has the amino acid sequence identical to Compound 2 but without any conjugation) (n=3/group). Plasma samples were collected pre-dose (−5 min), 0.5 hr, 1 hr, 2 hr, 4 hr, 6 hr, 8 hr, 12 hr and 24 hr hours after the injection. For Compound 3, plasma collection timepoints were −5 min, 0.25 h, 0.5 h, 1 h, 2 h, 4 h and 6 h. The concentrations of the fusion protein conjugates or the non-acylated fusion protein in the plasma were measured by an ELISA assay which has immunoreactivities towards both C-terminal FGF21 and intact N-terminal of GLP-1. Based on the graph showing plasma concentration of each protein versus time after subcutaneous injection, the pharmacokinetic parameters were calculated by WinNonlin.
Pharmacokinetic data were analyzed by WinNonlin software. Tmax, Cmax, T1/2, AUC and MRT were calculated for each molecule.

[3] = Body weight in DIO mice: fusion protein conjugate against GLP1 alone and FGF21 alone; format: in vivo, DIO male C57BL/6 mice; conditions: both 10 nmol/kg and 30 nmol/kg, subcutaneously everyday for 21 days
Protocol: (§1) FIGS. 3A-3B show in vivo efficacy in DIO mice. To evaluate the body weight effect of the fusion proteins, 17 week old DIO mice (C57BL/6 mice on high fat diet for 13 weeks) were dosed everyday subcutaneously with different concentrations of compounds for 21 days. […] Data are expressed as mean values and standard error (SEM). n=5 for each treatment group.
17 week old DIO male C57BL/6 mice (˜45 g) were injected everyday subcutaneously with designated proteins (i.e., Compounds 63, 69 and 70) for 21 days. Body weight was measured daily and five animals were used for each treatment group. Day 1 and Day 21 are first day and last day of molecule dosage. % BW loss=100*(BW on Day n-BW on Day 1)/(BW on Day 1). Data are indicated as mean values and standard error (SEM).

[4] = Efficacy study in DIO mice: body weight, fasting glucose, insulin, triglycerides; format: in vivo, DIO male C57BL/6 mice
Protocol: as §1, with “4A-4F” for “3A-3B”, “evaluate effects of the compounds on” for “evaluate”, “weight, blood glucose, plasma insulin and plasma triglyceride in vivo, 17-week” for “weight effect of the fusion proteins, 17 week”
17 week old DIO male C57BL/6 mice (˜45 g) were injected everyday subcutaneously with designated proteins (i.e., Compound 63) for 21 days. Body weight was measured daily and five animals were used for each treatment group. Fasting glucose was also monitored on designated days. Body weight and glucose were monitored for each individual animal. Day 1 and Day 21 are first day and last day of molecule dosage. % BW loss=100*(BW on Day n-BW on Day 1)/(BW on Day 1). Terminal blood was collected and EDTA-2k plasma was prepared and frozen in −80° C. for biomarker measurement. Livers were also collected and frozen in liquid nitrogen and stored in −80° C.
Data are indicated as mean values and standard error (SEM). Statistical analysis was performed by One-way ANOVA.

Molecule	BW reduction compared to Semaglutide ([1]; 30 nmol/kg, 10-day dosing period (FIGS. 1A-1B))	Body weight reduction at 30 nmol/kg (% reduction compared to vehicle)(Day11) [1]	AUC compared to non-acylated fusion protein (Compound 3) ([2]; 30 nmol/kg subcutaneous)	AUClast [2]	Cmax [2]	Terminal t1/2 [2]	Tmax [2]	Body weight control compared to GLP1 alone (Compound 70) and FGF21 alone (Compound 69) [3]	Body weight, glycemic control and lipid profile compared to 30 nmol/kg Semaglutide ([4]; 30 nmol/kg subcutaneously everyday for 21 days)	Dose dependence of efficacy ([4]; comparing 10 nmol/kg and 30 nmol/kg)	Half-lives of double acylated compared to monoacylated Compounds 9 and 10 ([2]; 30 nmol/kg subcutaneous)	PK properties compared to Semaglutide ([2]; 30 nmol/kg subcutaneous)
Compound 10: GLP-1/FGF21 fusion polypeptide SEQ ID NO: 10 conjugated with Moiety A at 222K (conjugate, Moiety A conjugated at K222) HGEGTFTSDVSSYLEEQAAREFIAWLVRGGGGGGGSGGGGSGGGGSGGGGSHPIPDSSPLLQFGGQVRQRYLYTDDAQQTEAHLEIREDGTVGGAADQSPESLLQLRALRPGVIQILGVRTSRFLCQRPDGALYGSLHFDPEACSFRELLLEDGYNVYQSEAHGLPLHLPGQRSPHRDPAPRGPARFLPLPGLPPALPEPPGILAPQPPDVGSSDPLSLVGKSQGRSPSYES	much more enhanced and persistent BW reduction	20.0%	larger AUC	0.4651 µM·h	50.2 nM	1.9 h	4 h	–	–	–	–	–
Compound 9: GLP-1/FGF21 fusion polypeptide SEQ ID NO: 9 conjugated with Moiety A at 231K (conjugate, Moiety A conjugated at K231) HGEGTFTSDVSSYLEEQAAREFIAWLVRGGGGGGGSGGGGSGGGGSGGGGSHPIPDSSPLLQFGGQVRQRYLYTDDAQQTEAHLEIREDGTVGGAADQSPESLLQLRALRPGVIQILGVRTSRFLCQRPDGALYGSLHFDPEACSFRELLLEDGYNVYQSEAHGLPLHLPGQRSPHRDPAPRGPARFLPLPGLPPALPEPPGILAPQPPDVGSSDPLSLVGGSQGRSPSYKS	–	27.2%	larger AUC	0.7912 µM·h	65.6 nM	3.5 h	6 h	–	–	–	–	–
Compound 63: GLP-1/FGF21 fusion polypeptide SEQ ID NO: 160 conjugated with Moiety B at 51C and 222C (conjugate, Moiety B conjugated at C51 and C222) HGEGTFTSDVSSYLEEQAAKEFIAWLVKGGGGGGGSGGGGSGGGGSGGGGCHPIPDSSPLLQFGGQVRQRYLYTDDAQQTEAHLEIREDGTVGGAADQSPESLLQLKALKPGVIQILGVKTSRFLCQRPDGALYGSLHFDPEACSFRELLLEDGYNVYQSEAHGLPLHLPGQKSPHRDPAPRGPARFLPLPGLPPALPEPPGILAPQPPDVGSSDPLSLVGCSQGRSPSYES	–	24.5%	larger AUC	1.2948 µM·h	88.8 nM	16.7 h	6.7 h	better body weight control	better body weight and glycemic control and lipid profile	Dose dependent efficacy	–	–
Compound 19: GLP-1/FGF21 fusion polypeptide SEQ ID NO: 19 conjugated with Moiety A at 51K and 222K (conjugate, Moiety A conjugated at K51 and K222) HGEGTFTSDVSSYLEEQAAREFIAWLVRGGGGGGGSGGGGSGGGGSGGGGKHPIPDSSPLLQFGGQVRQRYLYTDDAQQTEAHLEIREDGTVGGAADQSPESLLQLRALRPGVIQILGVRTSRFLCQRPDGALYGSLHFDPEACSFRELLLEDGYNVYQSEAHGLPLHLPGQRSPHRDPAPRGPARFLPLPGLPPALPEPPGILAPQPPDVGSSDPLSLVGKSQGRSPSYES	–	27.0%	larger AUC	1.018 µM·h	59.9 nM	10.8 h	4 h	–	–	–	significantly prolonged half-lives	better PK properties
